From patent US20200016201A1, “CHIMERIC ANTIGEN RECEPTORS AND COMPOSITIONS AND METHODS OF USE THEREOF” (published 2020)

Molecular target: Lym-1 antigen (HLA-Dr10) on Raji cells (human)
Test: avidity constant, Scatchard plot analysis on the target tumor cell line (Raji)

Ka: 4.02e+08 M⁻¹
B1: Lym-1 (antibody, V domains shown)
VH: QLKESGPGLVAPSQSLSITCTISGFSLTSYGVHWVRQPPGKGLEWLVVIWSDGSTTYNSALKSRLSISKDNSKSQVFLKMNSLQTDDTAIYYCASHYGSTLAFASWGHGTLVTVSA
VL: DIQMTQSPASLSASVGETVTIICRASVNIYSYLAWYQQKQGKSPQLLVYNAKILAEGVPSRFSGSGSGTQFSLKINSLQPEDFGSYYCQHHYGTFTFGSGTKLEIK
